Data published in publication PMC5120336, “The N-terminal loop of IRAK-4 death domain regulates ordered assembly of the Myddosome signalling scaffold” (Scientific Reports, 2016).

How the values were obtained:
[1] = molecular target: the molecule itself; assay: SEC; Myddosome assembly assay: death domains alone or mixed 1:1, concentrated to 0.5 mg.ml^-1, calibrated TSKgel SuperSW3000 analytical size exclusion column, 0.3 ml.min^-1, peaks analysed by reducing SDS-PAGE
MyD88 (LUMIER construct) = molecular target: T1, MyD88 (LUMIER construct) (human, UniProt Q99836 1-296); assay: LUMIER; affinity purification of Protein A tagged proteins on magnetic IgG beads (Dynabeads M-280, sheep anti-rabbit IgG); co-purified protein detected by Renilla luciferase activity; details: partners not purified
T1 construct: MyD88, human

Binder	stoichiometry N [1]	fold binding against wild-type IRAK-4 (MyD88 (LUMIER construct)) [fold]
MyD88 containing the death domain and intermediate domain (aa 1 to 158) (domain or fragment, human, UniProt Q99836 1-158, looked up, MyD88, human, death domain and intermediate domain, aa 1 to 158; Alone it elutes as a dimer (35 kDa) on size exclusion; also called MyD88 DD; MyD88 death domain; source: E. coli BL21 Star (DE3), purified (GSTrap with on-column Tev cleavage, HisTrap, Superdex 75); not shown: 6xHis-GST, N-terminal, cleaved) MAAGGPGAGSAAPVSSTSSLPLAALNMRVRRRLSLFLNVRTQVAADWTALAEEMDFEYLEIRQLETQADPTGRLLDAWQGRPGASVGRLLELLTKLGRDDVLLELGPSIEEDCQKYILKQQQEEAEKPLQVAAVDSSVPRTAELAGITTLDDPLGHMP	2	
IRAK-4 kinase dead mutant (KK213AA) (LUMIER construct) (natural protein, human, UniProt Q9NWZ3 1-460, looked up, IRAK-4, human; also called kinase dead IRAK-4; KD) MNKPITPSTYVRCLNVGLIRKLSDFIDPQEGWKKLAVAIKKPSGDDRYNQFHIRRFEALLQTGKSPTSELLFDWGTTNCTVGDLVDLLIQNEFFAPASLLLPDAVPKTANTLPSKEAITVQQKQMPFCDKDRTLMTPVQNLEQSYMPPDSSSPENKSLEVSDTRFHSFSFYELKNVTNNFDERPISVGGNKMGEGGFGVVYKGYVNNTTVAVAALAAMVDITTEELKQQFDQEIKVMAKCQHENLVELLGFSSDGDDLCLVYVYMPNGSLLDRLSCLDGTPPLSWHMRCKIAQGAANGINFLHENHHIHRDIKSANILLDEAFTAKISDFGLARASEKFAQTVMTSRIVGTTAYMAPEALRGEITPKSDIYSFGVVLLEIITGLPAVDEHREPQLLLDIKEEIEDEEKTIEDYIDKKMNDADSTSVEAMYSVASQCLHEKKNKRPDIKKVQQLLQEMTAS		~5
